Data as given in patent publication US6689364B2, “Borrelia burgdorferi polypeptides and uses thereof” (Tufts University, priority 2000, dated 2004).
Entries after “also recorded” stand apart in the source; their conditions may differ.

Experiments:
[1] = test system: HLA-DRB1*0401 restricted OspA-specific human T cell clones; assay: Cytokine production by T cell clones on stimulation with OspA; format: cell-based; conditions: for production of interferon gamma by T cell clones: FIG. 3A; for production of interleukin 13 by T cell clones: FIG. 3B
Description: (§1) Binding of OspA to HLA-DRB1*0401 is determined by measuring stimulation of T cells reactive with wildtype OspA. The stimulation of T cells is determined by measuring OspA-induced proliferation or cytokine production, including interferon gamma and interleukin 13 (see Examples, below).
(§2) Human T cells were cloned from the synovial fluid of an HLA DRB1*0401 homozygous patient based upon their ability to recognize the epitope OspA165-173 in the context of HLA-DRB1*0401. These clones were then tested for their ability to respond functionally to wild type versus FTK OspA by either proliferation or cytokine secretion.
(§3) Three different human DR4-restricted T cell clones from a patient with treatment-resistant Lyme arthritis were selected for their ability to respond to the wild type OSpA165-173 peptide. […] These T cells proliferate in response to stimulation with wildtype OspA, but not FTK-OspA.

[2] = test system: monoclonal antibody LA-2; assay: In vitro binding of protective anti-OspA monoclonal antibody LA-2; conditions: in vitro assay, FIG. 6
Description: Monoclonal antibody LA-2, which provides passive immunity against B. burgdorferi in mice, binds an epitope in OspA.

[3] = test system: OspA; assay: Serum OspA-specific IgG in immunized mice; format: in vivo; conditions: for serum OspA-specific IgG pre-infection: FIG. 7A; for serum OspA-specific IgG post-infection: FIG. 7B
Description: (§4) On day 35, the vaccinated mice were exposed to 5×10^3 or 1×10^4 passage 0 N40 B. burgdorferi in the right footpad. On day 56, mice were sacrificed and the following tissue samples were taken for further analysis: ankles (for histology to analyze arthritis), blood and bladder (for culture to detect B. burgdorferi), serum (for serology to determine the antibody response), and ears (for PCR to detect B. burgdorferi).

[4] = test system: HLA-DRB1*0401 restricted OspA-specific human T cell clones; assay: Proliferation response of human DR4-restricted T cell clones to OspA; format: cell-based; conditions: for proliferation response of T cell clones: three human DR4-restricted T cell clones from a patient with treatment-resistant Lyme arthritis, FIG. 2
Description: as §1, §2, §3

[5] = test system: N40 B. burgdorferi; assay: Mouse vaccination and B. burgdorferi challenge, protection against Lyme arthritis; format: in vivo, mice; conditions: trials A and B together; for mice protected from development of arthritis: 10 μg vaccine on days 0, 14, 28, day 35 challenge with 5×10^3 or 1×10^4 N40 B. burgdorferi in footpad, day 56 histology; for mice protected from development of arthritis (protected/total): same protocol, number of mice
Description: The mouse vaccination protocol was based upon experiments in the literature which initially identified OspA as having potential as a vaccine. The vaccine has not been tested in vivo with tick challenge due to the technically difficult nature of the animal handling for such experiments. However, the artificial system used here has been utilized by others in the past and reflects accurately on the protective ability of the modified vaccine. (Fikrig et al, 1997 Immunity 6:531-539; Bockenstedt et al,1993 J Immunol 151:900-906, Fikrig et al, 1992 PNAS 89:5418-5421)
The correlation between infection and arthritis, measured for the first vaccination trial, was 1:1.
as §4

## wildtype OspA: recombinant wildtype B. burgdorferi outer surface protein A [reference compound]
[1]
  production of interferon gamma by T cell clones: induces production
  production of interleukin 13 by T cell clones: induces production
[2]
  binding of monoclonal antibody LA-2: binds; also recorded: equivalently
[3]
  serum OspA-specific IgG pre-infection: similar
  serum OspA-specific IgG post-infection: similar
[4]
  proliferation response of T cell clones: proliferate
[5]
  mice protected from development of arthritis: 75%
  mice protected from development of arthritis (protected/total): 12/16

B1: FTK-OspA (protein)
chain: KQNVSSLDEKNSVSVDLPGEMKVLVSKEKNKDGKYDLIATVDKLELKGTSDKNNGSGVLEGVKADKSKVKLTISDDLGQTTLEVFKEDGKTLVSKKVTSKDKSSTEEKFNEKGEVSEKIITRADGTRLEYTGIKSDGSGKAKEVLKGFTLEGKLTAEKTTLVVKEGTVTLSKNISKSGEVSVELNDTDSSAATKKTAAWNSGTSTLTITVNSKKTKDLVFTKENTITVQQYDSNGTKLEGSAVEITKLDEIKNALK
[1]
  production of interferon gamma by T cell clones: not
  production of interleukin 13 by T cell clones: not
[2]
  binding of monoclonal antibody LA-2: binds; also recorded: equivalently
[3]
  serum OspA-specific IgG pre-infection: similar
  serum OspA-specific IgG post-infection: similar
[4]; clones from synovial fluid of an HLA DRB1*0401 homozygous patient
  ability to stimulate OspA-specific T cell clones (proliferation or cytokine secretion): significantly decreased
[4]
  proliferation response of T cell clones: not
[5]
  mice protected from development of arthritis: 87.5%
  mice protected from development of arthritis (protected/total): 14/16
